Source: patent US6133428

Tests used:
[1] = target: Gab1 of insulin-stimulated 3T3-L1 fibroblasts (Mus musculus (Mouse)) (UniProt Q9QYY0); test: PI-3-kinase activity assay on immunoprecipitates from insulin stimulated 3T3-L1 fibroblasts
[2] = target: Gab1 of insulin-stimulated 3T3-L1 fibroblasts (Mus musculus (Mouse)) (UniProt Q9QYY0); test: PI-3-kinase activity assay on anti-Gab1 immunoprecipitates from 3T3-L1 fibroblasts
[3] = target: endogenous Gab1 of EGF stimulated A431 cells (Homo sapiens (Human)); test: PI-3-kinase activity assay on immunoprecipitates from EGF stimulated A431 cells
[4] = target: endogenous Gab1 of insulin stimulated A431 cells (Homo sapiens (Human)); test: PI-3-kinase activity assay on anti-Gab1 immunoprecipitates from A431 cells
[5] = target: endogenous Gab1 of EGF stimulated A431 cells (Homo sapiens (Human)); test: as above

Row | Gab1 associated PI-3-kinase activity as percent of that associated with anti-phosphotyrosine [1] [%] | fold increase of PI-3-kinase activity in Gab1 immunoprecipitates [2] [fold] | anti-Gab1 associated PI-3-kinase activity as percent of that in anti-phosphotyrosine immunoprecipitates [3] [%] | fold increase of PI-3-kinase activity in Gab1 immunoprecipitates [4] [fold] | fold increase of PI-3-kinase activity in anti-Gab1 immunoprecipitates against unstimulated cells [5] [fold] | Substance
1 | 71 | 2.4 | – | – | – | PI-3-kinase of 3T3-L1 fibroblasts (enzyme)
2 | – | – | 42 | 1.7 | 2.3 | PI-3-kinase of A431 cells (enzyme)
